Reference: publication PMC2064291

What follows are substances tested against vitronectin (urea-purified) (assay: solid-phase binding assay).

Fold reduction in binding, > 5 fold:
soluble uPAR I63A (from UniProt Q03405 23-305) (domain or fragment)
soluble uPAR R58A (from UniProt Q03405 23-305) (domain or fragment)
soluble uPAR R91A (from UniProt Q03405 23-305) (domain or fragment)
soluble uPAR W32A (from UniProt Q03405 23-305) (domain or fragment)
soluble uPAR Y92A (from UniProt Q03405 23-305) (domain or fragment)
